Assay results as given in patent publication US7425614B2, “Neuroprotective therapeutics preventing ERK/MAPK activation through the NMDA receptor” (Children's Medical Center Corporation, priority 2003, dated 2008).

Tests used:
NR2B = test: immunocytochemistry of NR2B and PSD-95 clusters in cultured neurons; format: cell-based, rat
Excerpt: Coverslips with cultured neurons were fixed with 4% paraformaldehyde, permeabilized with 0.3% Triton X-100, and blocked in 10% goat serum in PBS. A rabbit polyclonal antibody against the N terminus of the NR2B subunit of the NMDA receptor (AB1557P, Chemicon, Temecula, Calif.) was used for detection in neurons expressing GFP and RasGRF1-BD. These antibodies could not be used for study of the NR2B subunit distribution in neurons expressing NR2B-BD since they recognized the expressed construct. The distribution of NR2A/B subunit was determined using polyclonal antibody AB 1548 (Chemicon). A mouse monoclonal antibody (clone K 28/43, Upstate, Waltham, Mass.) was used to detect PSD-95. Secondary antibodies were the same as that used for detection of ERK and MAP2. To quantify the distribution of clusters in transfected cells, we first focused on dendrites of neurons expressing the EGFP fluorescent construct. Thereafter, fluorescent images of GFP, NR2B, and PSD-95 were acquired confocally (60×; NA 1.4 objective, zoom 5). Cluster density and brightness were analyzed with the MetaMorph Imaging System (Universal Imaging, Westchester, Pa.). Ten neurons were analyzed from each experiment (3-4 dendritic regions for each neuron).

RasGRF1 = molecular target: T1, RasGRF1 (Mus musculus, UniProt P27671); test: pull-down / in vitro binding of NR2B fragments with in vitro translated RasGRF1
T1 construct: In vitro translated full-length RasGRF1 and AU1-tagged NR2B fragments were coimmunopecipitated with AU1 antibody; made in house; host or cells: cell-free in vitro translation (TNT system, [35S]methionine)
T1 sequence (P27671 1-1262): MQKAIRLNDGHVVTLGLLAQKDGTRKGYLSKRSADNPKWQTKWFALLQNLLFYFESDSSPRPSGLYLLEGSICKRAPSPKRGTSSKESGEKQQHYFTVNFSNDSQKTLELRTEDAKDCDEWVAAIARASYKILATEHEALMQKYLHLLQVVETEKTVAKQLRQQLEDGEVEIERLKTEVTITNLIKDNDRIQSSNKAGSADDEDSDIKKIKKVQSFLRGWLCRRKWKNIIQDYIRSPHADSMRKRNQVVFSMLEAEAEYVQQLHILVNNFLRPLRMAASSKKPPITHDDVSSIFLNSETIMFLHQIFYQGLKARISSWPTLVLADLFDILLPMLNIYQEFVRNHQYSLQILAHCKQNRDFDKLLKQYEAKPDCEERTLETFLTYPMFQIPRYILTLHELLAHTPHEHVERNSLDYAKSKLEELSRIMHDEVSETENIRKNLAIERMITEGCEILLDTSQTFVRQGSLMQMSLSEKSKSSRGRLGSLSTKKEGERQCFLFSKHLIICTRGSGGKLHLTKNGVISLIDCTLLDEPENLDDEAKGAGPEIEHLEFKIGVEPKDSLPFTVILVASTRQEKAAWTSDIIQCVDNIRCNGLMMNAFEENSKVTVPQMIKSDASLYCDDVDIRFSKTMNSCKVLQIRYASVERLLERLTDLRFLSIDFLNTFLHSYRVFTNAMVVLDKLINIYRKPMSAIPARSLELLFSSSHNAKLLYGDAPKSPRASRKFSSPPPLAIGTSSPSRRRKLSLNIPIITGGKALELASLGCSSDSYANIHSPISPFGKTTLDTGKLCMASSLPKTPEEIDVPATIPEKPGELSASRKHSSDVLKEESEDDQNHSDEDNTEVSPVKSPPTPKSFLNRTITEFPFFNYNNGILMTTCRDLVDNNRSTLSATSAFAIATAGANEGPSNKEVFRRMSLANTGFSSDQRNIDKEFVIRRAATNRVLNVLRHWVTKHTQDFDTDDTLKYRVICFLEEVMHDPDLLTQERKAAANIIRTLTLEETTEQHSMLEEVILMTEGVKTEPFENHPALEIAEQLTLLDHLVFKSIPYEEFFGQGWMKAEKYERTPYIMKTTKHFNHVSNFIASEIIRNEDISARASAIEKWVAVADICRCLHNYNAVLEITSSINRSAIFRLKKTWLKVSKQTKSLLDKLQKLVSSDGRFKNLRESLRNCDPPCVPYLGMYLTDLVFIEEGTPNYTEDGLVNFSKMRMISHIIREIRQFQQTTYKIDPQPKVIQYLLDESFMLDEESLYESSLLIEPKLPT
Excerpt: For in vitro translation, fragments of rat NR2B and rat RasGRF1 were made by PCR with 5′-primers containing AU1- and HA-tag encoding sequences; amplified sequences were subcloned into pcDNA3.1. For 293T transfection, the following cDNAs were used: mouse RasGRF1 in pcDNA3, GFP-rat NR2B, GFP rat NR2A in pcDNA1.1, and rat NR1 in pEGFP-C1 (Clontech). EGFP fusion constructs were made by subcloning cDNA fragments encoding different portions of NR2B and RasGRF1 into pEGFP-C1 (Clontech). EGFP fusion constructs were transferred from pEGFP into pSinRep5 and used for preparation of the Sindbis pseudovirus gene transfer system according to the manufacturer's protocol (Invitrogen, Carlsbad, Calif.).
Mouse RasGRF1 in pcDNA3 (Martegani, E., et al. (1992) EMBO J. 11, 2151-2157) was translated in vitro using the TNT system (Invitrogen) and [^35S]methionine. […]
For in vitro binding experiments, equimolar amounts of in vitro translated ^35S-labeled proteins (calculated from radioactivity of the excised protein band and cysteine content in the specific fragment) were incubated with a 3-fold molar excess of translated RasGRF1 for 30 min at 30° C., diluted with RIPA buffer, and immunoprecipitated with anti-HA-agarose (Santa Cruz). […]

B1: NR2B-BD: peptide of amino acids 886-1310 of the NR2B C-terminal domain that binds RasGRF1; used as NusA or EGFP fusion (protein)
chain: SPTATMNNTHSNILRLLRTAKNMANLSGVNGSPQSALDFIRRESSVYDISEHRRSFTHSDCKSYNNPPCEENLFSDYISEVERTFGNLQLKDSNVYQDHYHHHHRPHSIGSTSSIDGLYDCDNPPFTTQPRSISKKPLDIGLPSSKHSQLSDLYGKFSFKSDRYSGHDDLIRSDVSDISTHTVTYGNIEGNAAKRRKQQYKDSLKKRPASAKSRREFDEIELAYRRRPPRSPDHKRYFRDKEGLRDFYLDQFRTKENSPHWEHVDLTDIYKERSDDFKRDSVSGGGPCTNRSHLKHGTGEKHGVVGGVPAPWEKNLTNVDWEDRSGGNFCRSCPSKLHNYSSTVAGQNSGRQACIRCEACKKAGNLYDISKDNSLQELDQPAAPVAVTSNASSTKYPQSPTNSKAQKKNRNKLRRQHSYDTFVDL
modifications: left off: small tags and cut ends
notes: used as NusA or EGFP fusion
- average number NR2B-positive clusters (NR2B; compared to cells expressing GFP alone): did not reveal any changes
- localization or density of NR2B or PSD-95 (NR2B; cultured neurons expressing blocking peptides): did not change
- binding to RasGRF1 in vitro (RasGRF1): bound
